Assay results published in patent publication US20160002325A1 (VACCINEX, published 2016).
Residue numbers refer to the chain shown, from its start.

Key:
mouse CXCL13 [1] = molecular target: T1, mouse CXCL13 (mouse, UniProt O55038 22-109); assay: Capture Epitope Competition ELISA: recombinant mouse CXCL13 captured with MAb 470; unlabeled 3D2 inhibits binding of biotin-3D2; percent maximal response, four-parameter fit
T1 construct: Recombinant protein bought from Peprotech (#250-24); In some assays native mouse CXCL13 from organ extracts of TNF-alpha transgenic mice was used; this is said in the assay field; also called recombinant mouse CXCL13; rmuCXCL13
T1 sequence: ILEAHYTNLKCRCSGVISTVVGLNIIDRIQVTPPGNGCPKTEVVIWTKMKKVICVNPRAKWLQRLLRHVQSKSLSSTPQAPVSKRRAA
Procedure: (§1) Mouse CXCL13-rich organ extracts from TNF-alpha transgenic mice were used as sources of native mouse CXCL13. Mouse CXCL13 (1:40 dilution of TNF-Tg organ extract or 0.5 nM rmuCXCL13) was captured with 33 nM MAb 470 and detected with 3.3 nM biotin-3D2. The chemokine from the extracts (and recombinant mouse CXCL13 which was used as a control) was captured on the ELISA plate by MAb 470. The plate was then incubated with biotinylated 3D2 in the presence of various amounts of unlabeled 3D2.

human CXCL13 [2] = molecular target: T2, human CXCL13 (human, UniProt O43927 23-109); assay: SPR (BIACORE), recombinant human CXCL13, methods similar to Example 1; printed as Affinity, nM
T2 construct: Recombinant protein bought from Peprotech (#300-47); In some assays native human CXCL13 from supernatant of IFN-gamma-stimulated THP-1 cells was used; this is said in the assay field; also called recombinant human CXCL13; rhuCXCL13
T2 sequence: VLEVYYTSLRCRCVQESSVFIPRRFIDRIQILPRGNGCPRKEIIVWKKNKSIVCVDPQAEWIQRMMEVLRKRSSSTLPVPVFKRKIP
Procedure: (§2) Chemokines were immobilized on a C1 chip in Acetate buffer (pH=5) with human CXCL13 at 1 μg/ml, mouse CXCL13 at 0.3 μg/ml, and negative control SDF-1α at 0.5 μg/ml. 3D2 and 3C9 were diluted in HBS-EP buffer by two-fold from 100 nM to 0.78 nM and from 38 nM to […].

cynomolgus monkey CXCL13 [3] = molecular target: T3, cynomolgus monkey CXCL13 (cynomolgus monkey, UniProt O43927 23-104 (human entry), limits assumed); assay: Specificity ELISA on recombinant cynomolgus monkey CXCL13 coated at 100 nM, OD 450/570, four-parameter sigmoidal fit
T3 construct: Recombinant; also called recombinant cynomolgus monkey CXCL13
T3 chain: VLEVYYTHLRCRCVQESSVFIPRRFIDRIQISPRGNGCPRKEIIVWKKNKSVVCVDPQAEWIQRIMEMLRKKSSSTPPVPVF
Procedure: (§3) Each data point represents mean of triplicate measurements. EC50 values were calculated from four-parameter sigmoidal curve fit (R² for the curves that produced EC50 values were 0.99).

mouse CXCL13 [4] = molecular target: T1, mouse CXCL13; assay: Specificity ELISA on plate-coated recombinant mouse CXCL13, OD 450/570, four-parameter sigmoidal fit
Procedure: (§4) Hybridoma clones were screened by ELISA for binding to human and mouse CXCL13 protein. ELISA plates were coated with about 100 nM of human (Peprotech: #300-47) or mouse (Peprotech: #250-24) CXCL13 protein overnight at room temperature (RT). […] The plates were washed and developed with tetramethylbenzidine (TMB) substrate reagents A and B (BD Biosciences: #555214) mixed at equal volumes for 15 minutes in the dark and read at 450/570 wavelengths. Two positive hybridoma clones, labelled “3D2” and “3C9”, both mouse IgG1 antibodies, were selected for further characterization.
(§5) Specificity of the hybridoma-produced mouse anti-human antibodies, 3D2 and 3C9, was assessed by ELISA (as described above) on a panel that included recombinant chemokines (Peprotech: mouse and human CXCL13, human IL-8/CXCL8 (#200-08), human IP-10/CXCL10 (#200-10), human MIG/CXCL9 (#300-26), human SDF-1alpha/CXCL12 (#300-28A) and cynomolgus monkey CXCL13) as well as several non-specific control antigens (recombinant human C35, streptavidin (Thermo: #21122), bovine serum albumin (BSA) (SeraCore: #AP-4510-01)), human serum albumin (HAS) (Sigma: #A8763), insulin (Gibco: #12585-014), and hemoglobin (Sigma: #H7379).

mouse CXCL13 [5] = molecular target: T1, mouse CXCL13; assay: SPR (Biacore), recombinant mouse CXCL13; printed as Affinity (Biacore), nM
human CXCL13 [6] = molecular target: T2, human CXCL13; assay: Specificity ELISA on plate-coated recombinant human CXCL13, OD 450/570, four-parameter sigmoidal fit
Procedure: as §4, §5

mouse CXCL13 [7] = molecular target: T1, mouse CXCL13; assay: SPR (BIACORE), recombinant mouse CXCL13, methods similar to Example 1; printed as Affinity, nM
Procedure: as §2

mouse CXCL13 [8] = molecular target: T1, mouse CXCL13; assay: Capture Epitope Competition ELISA: native mouse CXCL13 (TNF-Tg organ extract) captured with MAb 470; unlabeled 3D2 inhibits binding of biotin-3D2; percent maximal response, four-parameter fit
Procedure: as §1

mouse CXCL13 [9] = molecular target: T1, mouse CXCL13; assay: Capture Epitope Competition ELISA: native mouse CXCL13 captured with MAb 470; unlabeled competitor inhibits binding of 3.3 nM biotin-3D2; four-parameter fit
Procedure: For mouse ELISA, mouse CXCL13 (1:40 dilution of TNF-Tg organ extract) was captured with 33 nM MAb 470 and detected with 3.3 nM biotin-3D2. Each data point represents an average of duplicate measurements from one of at least three independent experiments. […] Curves shown in FIGS. 17A-B were fitted using four-parameter sigmoidal curve fit (R²=0.99).

human CXCL13 [10] = molecular target: T2, human CXCL13; assay: SPR (Biacore), recombinant human CXCL13; printed as Affinity (Biacore), nM
human CXCL13 [11] = molecular target: T2, human CXCL13; assay: Capture Epitope Competition ELISA: native human CXCL13 (THP-1 supernatant) captured with MAb 801; unlabeled 3D2 inhibits binding of biotin-3C9; percent maximal response, four-parameter fit
Procedure: (§6) Capture Epitope Competition ELISA was used to assess 3D2 binding to native human and mouse CXCL13. In this assay, native human CXCL13 was obtained from supernatants collected from human IFN-gamma-stimulated THP-1 cells. […] The plate was then incubated with biotinylated 3C9 in the presence of various amounts of unlabeled 3D2. […] As evident from FIG. 3A, 3D2 strongly bound to both native and recombinant human CXCL13 producing statistically similar EC50 values.

human CXCL13 [12] = molecular target: T2, human CXCL13; assay: SPR (BIACORE), recombinant chemokine immobilized on C1 chip, antibody in solution; printed as Affinity, nM
Procedure: as §2

mouse CXCL13 [13] = molecular target: T1, mouse CXCL13; assay: as above
Procedure: as §2

cynomolgus monkey CXCL13 [14] = molecular target: T3, cynomolgus monkey CXCL13; assay: Specificity ELISA on plate-coated recombinant cynomolgus monkey CXCL13, OD 450/570, four-parameter sigmoidal fit
Procedure: as §4, §5

human CXCL13 [15] = molecular target: T2, human CXCL13; assay: Capture Epitope Competition ELISA: recombinant human CXCL13 captured with MAb 801; unlabeled 3D2 inhibits binding of biotin-3C9; percent maximal response, four-parameter fit
Procedure: as §6

human CXCL13 [16] = molecular target: T2, human CXCL13; assay: Specificity ELISA on recombinant human CXCL13 coated at 100 nM, OD 450/570, four-parameter sigmoidal fit
Procedure: as §3

cynomolgus monkey CXCL13 [17] = molecular target: T3, cynomolgus monkey CXCL13; assay: Specificity ELISA on recombinant cynomolgus monkey CXCL13 coated at 100 nM, OD 450/570, four-parameter sigmoidal fit
human CXCL13 [18] = molecular target: T2, human CXCL13; assay: Specificity ELISA on recombinant human CXCL13 coated at 100 nM, OD 450/570, four-parameter sigmoidal fit; remark: listed apart in the source
[19] = molecular target: T4, human CXCL13 15-mer peptide YTSLRCRCVQESSVF (human); assay: ProArray Ultra peptide microarray of 15-mer human CXCL13 peptides, fluorescent secondary antibody
T4 peptide: YTSLRCRCVQESSVF
Procedure: In this project, the determination of peptide-antibody binding was performed by incubation of serum samples with a ProArray Ultra™ peptide microarray. This peptide array was generated as 15-mer peptides overlapping by 10 amino acids from the human CXCL13 primary sequence. The CXCL13 array contained sixteen unique peptides. […] After several washing steps the ProArray Ultra™ arrays were dried and scanned using a high-resolution fluorescence microarray scanning system.

mouse CXCL13 [20] = molecular target: T1, mouse CXCL13; assay: Specificity ELISA on recombinant mouse CXCL13 coated at 100 nM, OD 450/570, four-parameter sigmoidal fit
Procedure: For specificity ELISA, recombinant human, cynomolgus monkey, and mouse CXCL13 were each coated at 100 nM. […] The data points for each chemokine represents the mean of triplicate measurements. EC50 values were calculated from four-parameter sigmoidal curve fit (R² for the curves that produced EC50 values were 0.99).

mouse CXCL13 [21] = molecular target: T1, mouse CXCL13; assay: as above; remark: listed apart in the source
Procedure: as §3

B1: 3D2 (antibody, mouse IgG1, V domains shown)
VH: EVQLQESGPGILQPSQTLNLTCSFSGFSLSTFGMGVGWIRQPSGKGLEWLAHIWWDDDRRYNPALKSRLTISKETSKNQVFLKIANVDTADTATYYCTRIAGYYGSRDWFAYWGQGTTVTVSS
VL: DIVLTQSPASLAVSLGQRATISCRASESVDNSGISFMHWYQQKPGQPPKLLIFRASDLESGIPARFSGSGSRTDFTLTVNPVETDDVATYFCQQSNKDPWTFGGGTKLEIK
notes: Hybridoma-produced mouse IgG1; also called mouse anti-human CXCL13 antibody 3D2; H1609/L0293
Question: What does the source list for B1?
Answer: EC50 (mouse CXCL13 [1]): 12.5 nM; Kd (human CXCL13 [2]): 13 nM; EC50 (cynomolgus monkey CXCL13 [3]): 8.9 nM; EC50 (mouse CXCL13 [4]): 0.98 nM; Kd (mouse CXCL13 [5]): 159 nM; EC50 (human CXCL13 [6]): 1.1 nM; Kd (mouse CXCL13 [7]): 159 nM; EC50 (mouse CXCL13 [8]): 11.2 nM; EC50 (mouse CXCL13 [9]): 11.2 nM; Kd (human CXCL13 [10]): 13 nM; EC50 (human CXCL13 [11]): 0.13 nM; Kd (human CXCL13 [12]): 12.9 nM; Kd (mouse CXCL13 [13]): 159 nM; EC50 (cynomolgus monkey CXCL13 [14]): 0.8 nM; EC50 (human CXCL13 [15]): 0.46 nM; EC50 (human CXCL13 [16]): 0.2 nM

B2: MAb 1476 (antibody, V domains shown)
VH: B1 VH
VL: B1 VL
notes: Chimeric IgG1: 3D2 variable domains (H1609/L0293) on human gamma 1 heavy chain constant and human kappa constant; also called chimeric 3D2
Question: For B2, which EC50 (cynomolgus monkey CXCL13 [17]) is on record?
Answer: 0.51 nM

Question: And the EC50 (human CXCL13 [18])?
Answer: 0.07 nM

Question: And the Kd (human CXCL13 [10])?
Answer: 11.4 nM

B3: MAb 5261 (antibody, V domains shown)
VH: QVQLQESGPGLVKPSETLSLTCTVSGFSLSTFGMGVGWIRQPPGKGLEWIAHIWWDDDRRYNPALKSRVTISKDTSKNQFSLKLSSVTAADTAVYYCARIAGYYGSRDWFAYWGQGTTVTVSS
VL: DIQMTQSPSSLSASVGDRVTITCRASESVDNMGISFMHWYQQKPGKAPKLLIFRASDLESGVPSRFSGSGSGTDFTLTISSLQPEDFATYYCQQSNKDPWTFGQGTKLEIK
notes: Humanized
Question: What does the source list for B3?
Answer: Kd (human CXCL13 [2]): 5.1 nM; EC50 (cynomolgus monkey CXCL13 [17]): 0.04 nM; binding result [19]: binds; Kd (mouse CXCL13 [5]): 8.1 nM; EC50 (human CXCL13 [18]): 0.03 nM; Kd (mouse CXCL13 [7]): 8.1 nM; EC50 (mouse CXCL13 [20]): 0.09 nM; EC50 (mouse CXCL13 [9]): 6 nM; Kd (human CXCL13 [10]): 5.1 nM

B4: MAb 5378 (antibody, V domains shown)
VH: B3 VH
VL: B3 VL
notes: also called H5188/L5153
Question: B4 was tested. Which Kd (human CXCL13 [2]) did it give?
Answer: 4.5 nM

Question: What about the EC50 (cynomolgus monkey CXCL13 [3]) of the same binder?
Answer: 0.3 nM

Question: What about the EC50 (mouse CXCL13 [21]) of the same binder?
Answer: 3.4 nM

Question: And the Kd (mouse CXCL13 [7])?
Answer: 4.2 nM

Question: And the EC50 (human CXCL13 [16])?
Answer: 0.2 nM

B5: MAb 5080 (antibody, human IgG1, V domains shown)
VH: B3 VH
VL: B3 VL with M32S, R65G, G72R
notes: also called H2177/L5055
Question: How did the EC50 (cynomolgus monkey CXCL13 [17]) turn out when B5 was run?
Answer: 0.06 nM

Question: And the Kd (mouse CXCL13 [5])?
Answer: 59.2 nM

Question: What about the EC50 (human CXCL13 [18]) of the same binder?
Answer: 0.03 nM

Question: And the EC50 (mouse CXCL13 [20])?
Answer: 2.1 nM

Question: What about the EC50 (mouse CXCL13 [9]) of the same binder?
Answer: 24.3 nM

Question: What about the Kd (human CXCL13 [10]) of the same binder?
Answer: 14.5 nM
